The sequences below were run on Escherichia coli TOP10 (assay: shrunken log2 fold change of peptide-encoding DNA abundance (4.5 h post-induction vs induction); higher = less antimicrobial activity (less host growth inhibition)). Details: time post-induction: 4.5 h; library: site-saturation at positions 5, 18, 19, 20.
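Further: peptides expressed intracellularly from a pBAD plasmid library in pooled LB shake-flask culture, induced with 0.3% L-arabinose, DNA abundance read by NGS, three biological replicates, DESeq2 with apeglm shrinkage.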

Row | Sequence | shrunken log2 fold change
1 | RRIRWRPPRLPRPRPRPTIYPRP | 0.113
2 | RRIRWRPPRLPRPRPRPTLRPRP | 0.0881
3 | RRIRWRPPRLPRPRPRPTMAPRP | 0.449
4 | RRIRWRPPRLPRPRPRPTMKPRP | -0.0612
5 | RRIRWRPPRLPRPRPRPTMPPRP | 0.256
6 | RRIRWRPPRLPRPRPRPTMTPRP | 0.328
7 | RRIRWRPPRLPRPRPRPTNRPRP | -0.018
8 | RRIRWRPPRLPRPRPRPTPDPRP | 0.746
9 | RRIRWRPPRLPRPRPRPTPIPRP | 0.419
10 | RRIRWRPPRLPRPRPRPTPSPRP | 0.564
11 | RRIRWRPPRLPRPRPRPTQAPRP | 1.45
12 | RRIRWRPPRLPRPRPRPTQIPRP | 0.132
13 | RRIRWRPPRLPRPRPRPTQTPRP | 0.551
14 | RRIRWRPPRLPRPRPRPTQYPRP | 0.0537
15 | RRIRWRPPRLPRPRPRPTRCPRP | 0.0338
16 | RRIRWRPPRLPRPRPRPTRMPRP | 0.381
17 | RRIRWRPPRLPRPRPRPTSAPRP | 0.389
18 | RRIRWRPPRLPRPRPRPTVAPRP | 0.662
19 | RRIRWRPPRLPRPRPRPTVCPRP | 0.00145
20 | RRIRWRPPRLPRPRPRPTVEPRP | 0.0565
21 | RRIRWRPPRLPRPRPRPTVGPRP | 0.468
22 | RRIRWRPPRLPRPRPRPTYMPRP | -0.0572

Row | Sequence | shrunken log2 fold change
23 | RRIRWRPPRLPRPRPRPTYNPRP | 0.4
24 | RRIRWRPPRLPRPRPRPVAPPRP | 0.522
25 | RRIRWRPPRLPRPRPRPVAWPRP | 0.489
26 | RRIRWRPPRLPRPRPRPVCIPRP | 0.12
27 | RRIRWRPPRLPRPRPRPVCWPRP | 0.758
28 | RRIRWRPPRLPRPRPRPVCYPRP | 0.028
29 | RRIRWRPPRLPRPRPRPVDCPRP | 0.00927
30 | RRIRWRPPRLPRPRPRPVENPRP | -0.101
31 | RRIRWRPPRLPRPRPRPVFGPRP | 0.159
32 | RRIRWRPPRLPRPRPRPVHLPRP | -0.00868
33 | RRIRWRPPRLPRPRPRPVHMPRP | -0.0785
34 | RRIRWRPPRLPRPRPRPVICPRP | -0.151
35 | RRIRWRPPRLPRPRPRPVIVPRP | -0.0785
36 | RRIRWRPPRLPRPRPRPVLLPRP | 0.0146
37 | RRIRWRPPRLPRPRPRPVNFPRP | 0.0606
38 | RRIRWRPPRLPRPRPRPVPGPRP | 0.491
39 | RRIRWRPPRLPRPRPRPVPIPRP | -0.0691
40 | RRIRWRPPRLPRPRPRPVPLPRP | 0.00691
41 | RRIRWRPPRLPRPRPRPVPQPRP | 0.282
42 | RRIRWRPPRLPRPRPRPVPTPRP | 0.544
43 | RRIRWRPPRLPRPRPRPVPWPRP | 0.374
44 | RRIRWRPPRLPRPRPRPVQAPRP | 0.36

Row | Sequence | shrunken log2 fold change
45 | RRIRWRPPRLPRPRPRPVQHPRP | 0.136
46 | RRIRWRPPRLPRPRPRPVQVPRP | 0.0298
47 | RRIRWRPPRLPRPRPRPVQWPRP | 0.251
48 | RRIRWRPPRLPRPRPRPVREPRP | 0.0727
49 | RRIRWRPPRLPRPRPRPWCAPRP | 0.0379
50 | RRIRWRPPRLPRPRPRPWCGPRP | 0.273
51 | RRIRWRPPRLPRPRPRPWCHPRP | -0.422
52 | RRIRWRPPRLPRPRPRPWDFPRP | -0.2
53 | RRIRWRPPRLPRPRPRPWEDPRP | -0.0135
54 | RRIRWRPPRLPRPRPRPWFFPRP | -0.0638
55 | RRIRWRPPRLPRPRPRPWGIPRP | 0.0114
56 | RRIRWRPPRLPRPRPRPWHIPRP | 0.106
57 | RRIRWRPPRLPRPRPRPWHKPRP | -0.0356
58 | RRIRWRPPRLPRPRPRPWHVPRP | -0.201
59 | RRIRWRPPRLPRPRPRPWLRPRP | 0.0741
60 | RRIRWRPPRLPRPRPRPWLTPRP | -0.0976
61 | RRIRWRPPRLPRPRPRPWPAPRP | 0.62
62 | RRIRWRPPRLPRPRPRPWPQPRP | 0.273
63 | RRIRWRPPRLPRPRPRPWPVPRP | 0.502
64 | RRIRWRPPRLPRPRPRPWRAPRP | 0.223
65 | RRIRWRPPRLPRPRPRPWRDPRP | 0.433
66 | RRIRWRPPRLPRPRPRPWRFPRP | 0.0309

Row | Sequence | shrunken log2 fold change
67 | RRIRWRPPRLPRPRPRPWRIPRP | -0.604
68 | RRIRWRPPRLPRPRPRPWRQPRP | 0.25
69 | RRIRWRPPRLPRPRPRPWSHPRP | -0.00467
70 | RRIRWRPPRLPRPRPRPWTWPRP | 0.0111
71 | RRIRWRPPRLPRPRPRPWVAPRP | 0.191
72 | RRIRWRPPRLPRPRPRPWVVPRP | 1.61
73 | RRIRWRPPRLPRPRPRPWWNPRP | -0.0562
74 | RRIRWRPPRLPRPRPRPWWRPRP | 0.0782
75 | RRIRWRPPRLPRPRPRPWYKPRP | -0.1
76 | RRIRWRPPRLPRPRPRPYARPRP | 0.101
77 | RRIRWRPPRLPRPRPRPYAWPRP | 0.122
78 | RRIRWRPPRLPRPRPRPYCAPRP | -0.281
79 | RRIRWRPPRLPRPRPRPYCNPRP | -0.455
80 | RRIRWRPPRLPRPRPRPYERPRP | -0.0653
81 | RRIRWRPPRLPRPRPRPYHCPRP | -0.276
82 | RRIRWRPPRLPRPRPRPYICPRP | -0.329
83 | RRIRWRPPRLPRPRPRPYIQPRP | -1.07
84 | RRIRWRPPRLPRPRPRPYLAPRP | -0.211
85 | RRIRWRPPRLPRPRPRPYLWPRP | -0.153
86 | RRIRWRPPRLPRPRPRPYPCPRP | -0.105
87 | RRIRWRPPRLPRPRPRPYQTPRP | -0.223
88 | RRIRWRPPRLPRPRPRPYRKPRP | 0.0527

Row | Sequence | shrunken log2 fold change
89 | RRIRWRPPRLPRPRPRPYRLPRP | 0.00724
90 | RRIRWRPPRLPRPRPRPYRVPRP | 0.00439
91 | RRIRWRPPRLPRPRPRPYSCPRP | -0.705
92 | RRIRWRPPRLPRPRPRPYTRPRP | -0.774
93 | RRIRWRPPRLPRPRPRPYVEPRP | -0.446
94 | RRIRWRPPRLPRPRPRPYWEPRP | -0.0146
95 | RRIRWRPPRLPRPRPRPYWQPRP | -0.0738
96 | RRIRWRPPRLPRPRPRPYYNPRP | -1.01
97 | RRIRWRPPRLPRPRPRPYYQPRP | -0.297
98 | RRIRWRPPRLPRPRPRPYYSPRP | -0.181
99 | RRIRYRPPRLPRPRPRPAAIPRP | -0.092
100 | RRIRYRPPRLPRPRPRPADAPRP | 0.0896
101 | RRIRYRPPRLPRPRPRPADFPRP | -0.0123
102 | RRIRYRPPRLPRPRPRPADLPRP | -0.00419
103 | RRIRYRPPRLPRPRPRPAERPRP | 0.0541
104 | RRIRYRPPRLPRPRPRPAICPRP | 0.0426
105 | RRIRYRPPRLPRPRPRPALAPRP | 0.194
106 | RRIRYRPPRLPRPRPRPALHPRP | 0.12
107 | RRIRYRPPRLPRPRPRPALRPRP | -0.0531
108 | RRIRYRPPRLPRPRPRPALSPRP | -0.0367
109 | RRIRYRPPRLPRPRPRPAMNPRP | -0.796

From the supplement of paper PMC9112550, “Optimization of the antimicrobial peptide Bac7 by deep mutational scanning” (BMC Biology, 2022)
